This note sets out measurements from PMC11574045, “A cofactor-induced repressive type of transcription factor condensation can be induced by synthetic peptides to suppress tumorigenesis” (The EMBO Journal, 2024).

This assay deals with HEK293FT cells transfected with TF library. Nature of the assay: Screening of TF condensates based on fluorescent puncta. It is filed as cell-based. Particulars: Figure 1B numerical data; TF library screen, one value per transcriptional factor. Put shortly:
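TF plasmids (final 1.6 μg/ml) reverse-transfected with PEI (4.8 μg/ml) into HEK293FT cells; after 60 h, cells cultured ±glucose for 12 h, fixed in 4% PFA and immunostained for Flag or GAL4 tags with Alexa 488 secondaries. Puncta scored by automated imaging of 50 random fields per well.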

B1: TADA2L (protein, UniProt O75478 1-443, looked up)
Transcriptional adapter …: MDRLGPFSNDPSDKPPCRGCSSYLMEPYIKCAECGPPPFFLCLQCFTRGFEYKKHQSDHTYEIMTSDFPVLDPSWTAQEEMALLEAVMDCGFGNWQDVANQMCTKTKEECEKHYMKHFINNPLFASTLLNLKQAEEAKTADTAIPFHSTDDPPRPTFDSLLSRDMAGYMPARADFIEEFDNYAEWDLRDIDFVEDDSDILHALKMAVVDIYHSRLKERQRRKKIIRDHGLINLRKFQLMERRYPKEVQDLYETMRRFARIVGPVEHDKFIESHALEFELRREIKRLQEYRTAGITNFCSARTYDHLKKTREEERLKRTMLSEVLQYIQDSSACQQWLRRQADIDSGLSPSIPMASNSGRRSAPPLNLTGLPGTEKLNEKEKELCQMVRLVPGAYLEYKSALLNECNKQGGLRLAQARALIKIDVNKTRKIYDFLIREGYITKG
As for B1, the “Z score of condensed fraction” value worked out at 2.809.

B2: TAF1C (protein, UniProt Q15572 1-869, looked up)
TATA box-binding …: MDFPSSLRPALFLTGPLGLSDVPDLSFMCSWRDALTLPEAQPQNSENGALHVTKDLLWEPATPGPLPMLPPLIDPWDPGLTARDLLFRGGCRYRKRPRVVLDVTEQISRFLLDHGDVAFAPLGKLMLENFKLEGAGSRTKKKTVVSVKKLLQDLGGHQPWGCPWAYLSNRQRRFSILGGPILGTSVASHLAELLHEELVLRWEQLLLDEACTGGALAWVPGRTPQFGQLVYPAGGAQDRLHFQEVVLTPGDNPQFLGKPGRIQLQGPVRQVVTCTVQGESKALIYTFLPHWLTCYLTPGPFHPSSALLAVRSDYHCAVWKFGKQWQPTLLQAMQVEKGATGISLSPHLPGELAICSRSGAVCLWSPEDGLRQIYRDPETLVFRDSSSWRWADFTAHPRVLTVGDRTGVKMLDTQGPPGCGLLLFRLGAEASCQKGERVLLTQYLGHSSPKCLPPTLHLVCTQFSLYLVDERLPLVPMLKWNHGLPSPLLLARLLPPPRPSCVQPLLLGGQGGQLQLLHLAGEGASVPRLAGPPQSLPSRIDSLPAFPLLEPKIQWRLQERLKAPTIGLAAVVPPLPSAPTPGLVLFQLSAAGDVFYQQLRPQVDSSLRRDAGPPGDTQPDCHAPTASWTSQDTAGCSQWLKALLKVPLAPPVWTAPTFTHRQMLGSTELRREEEEGQRLGVLRKAMARGQLLLQRDLGSLPAAEPPPAPESGLEDKLSERLGEAWAGRGAAWWERQQGRTSEPGRQTRRPKRRTQLSSSFSLSGHVDPSEDTSSPHSPEWPPADALPLPPTTPPSQELTPDACAQGVPSEQRQMLRDYMAKLPPQRDTPGCATTPPHSQASSVRATRSQQHTPVLSSSQPLRKKPRMGF
In the case of B2, the “Z score of condensed fraction” value amounted to 0.1895.

B3: TAF9 (protein, UniProt Q8VI33 1-264, looked up)
Transcription initiation …: MESGKMASPKSMPKDAQMMAQILKDMGITEYEPRVINQMLEFAFRYVTTILDDAKIYSSHAKKATVDADDVRLAIQCRADQSFTSPPPRDFLLDIARQRNQTPLPLIKPYSGPRLPPDRYCLTAPNYRLKSLQKKAPAPAGRITVPRLSVGSVSSRPSTPTLGTPTPQTMSVSTKVGTPMSLTGQRFTVQMPASQSPAVKASIPATSTVQNVLINPSLIGSKNILITTNMVSQNTAESANALKRKREDDDDDDDDDDDDDYDNM
Regarding B3, the “Z score of condensed fraction” value is -0.7072.

B4: TADA2B (protein, UniProt Q86TJ2 1-420, looked up)
Transcriptional adapter 2-beta: MAELGKKYCVYCLAEVSPLRFRCTECQDIELCPECFSAGAEIGHHRRYHGYQLVDGGRFTLWGPEAEGGWTSREEQLLLDAIEQFGFGNWEDMAAHVGASRTPQEVMEHYVSMYIHGNLGKACIPDTIPNRVTDHTCPSGGPLSPSLTTPLPPLDISVAEQQQLGYMPLRDDYEIEYDQDAETLISGLSVNYDDDDVEIELKRAHVDMYVRKLKERQRRKNIARDYNLVPAFLGKDKKEKEKALKRKITKEEKELRLKLRPLYQFMSCKEFDDLFENMHKEKMLRAKIRELQRYRRNGITKMEESAEYEAARHKREKRKENKNLAGSKRGKEDGKDSEFAAIENLPGFELLSDREKVLCSSLNLSPARYVTVKTIIIKDHLQKRQGIPSKSRLPSYLDKVLKKRILNFLTESGWISRDAS
Regarding B4, the “Z score of condensed fraction” value was -0.4021.

B5: BIF1 (protein, UniProt Q9Y371 1-365, looked up)
Endophilin-B1: MNIMDFNVKKLAADAGTFLSRAVQFTEEKLGQAEKTELDAHLENLLSKAECTKIWTEKIMKQTEVLLQPNPNARIEEFVYEKLDRKAPSRINNPELLGQYMIDAGTEFGPGTAYGNALIKCGETQKRIGTADRELIQTSALNFLTPLRNFIEGDYKTIAKERKLLQNKRLDLDAAKTRLKKAKAAETRNSSEQELRITQSEFDRQAEITRLLLEGISSTHAHHLRCLNDFVEAQMTYYAQCYQYMLDLQKQLGSFPSNYLSNNNQTSVTPVPSVLPNAIGSSAMASTSGLVITSPSNLSDLKECSGSRKARVLYDYDAANSTELSLLADEVITVFSVVGMDSDWLMGERGNQKGKVPITYLELLN
As to B5, the “Z score of condensed fraction” value was -0.08025.

B6: TBR1 (protein, UniProt Q16650 1-682, looked up)
T-box brain protein 1: MQLEHCLSPSIMLSKKFLNVSSSYPHSGGSELVLHDHPIISTTDNLERSSPLKKITRGMTNQSDTDNFPDSKDSPGDVQRSKLSPVLDGVSELRHSFDGSAADRYLLSQSSQPQSAATAPSAMFPYPGQHGPAHPAFSIGSPSRYMAHHPVITNGAYNSLLSNSSPQGYPTAGYPYPQQYGHSYQGAPFYQFSSTQPGLVPGKAQVYLCNRPLWLKFHRHQTEMIITKQGRRMFPFLSFNISGLDPTAHYNIFVDVILADPNHWRFQGGKWVPCGKADTNVQGNRVYMHPDSPNTGAHWMRQEISFGKLKLTNNKGASNNNGQMVVLQSLHKYQPRLHVVEVNEDGTEDTSQPGRVQTFTFPETQFIAVTAYQNTDITQLKIDHNPFAKGFRDNYDTIYTGCDMDRLTPSPNDSPRSQIVPGARYAMAGSFLQDQFVSNYAKARFHPGAGAGPGPGTDRSVPHTNGLLSPQQAEDPGAPSPQRWFVTPANNRLDFAASAYDTATDFAGNAATLLSYAAAGVKALPLQAAGCTGRPLGYYADPSGWGARSPPQYCGTKSGSVLPCWPNSAAAAARMAGANPYLGEEAEGLAAERSPLPPGAAEDAKPKDLSDSSWIETPSSIKSIDSSDSGIYEQAKRRRISPADTPVSESSSPLKSEVLAQRDCEKNCAKDISGYYGFYSHS
Turning to B6, the “Z score of condensed fraction” value is reported as -0.7739.

B7: TADA3L (protein, UniProt O75528 1-432, looked up)
Transcriptional adapter 3: MSELKDCPLQFHDFKSVDHLKVCPRYTAVLARSEDDGIGIEELDTLQLELETLLSSASRRLRVLEAETQILTDWQDKKGDRRFLKLGRDHELGAPPKHGKPKKQKLEGKAGHGPGPGPGRPKSKNLQPKIQEYEFTDDPIDVPRIPKNDAPNRFWASVEPYCADITSEEVRTLEELLKPPEDEAEHYKIPPLGKHYSQRWAQEDLLEEQKDGARAAAVADKKKGLMGPLTELDTKDVDALLKKSEAQHEQPEDGCPFGALTQRLLQALVEENIISPMEDSPIPDMSGKESGADGASTSPRNQNKPFSVPHTKSLESRIKEELIAQGLLESEDRPAEDSEDEVLAELRKRQAELKALSAHNRTKKHDLLRLAKEEVSRQELRQRVRMADNEVMDAFRKIMAARQKKRTPTKKEKDQAWKTLKERESILKLLDG
Regarding B7, the “Z score of condensed fraction” value stood at 1.084.

B8: SUV39H1 (protein, UniProt O43463 1-412, looked up)
Histone-lysine …: MAENLKGCSVCCKSSWNQLQDLCRLAKLSCPALGISKRNLYDFEVEYLCDYKKIREQEYYLVKWRGYPDSESTWEPRQNLKCVRILKQFHKDLERELLRRHHRSKTPRHLDPSLANYLVQKAKQRRALRRWEQELNAKRSHLGRITVENEVDLDGPPRAFVYINEYRVGEGITLNQVAVGCECQDCLWAPTGGCCPGASLHKFAYNDQGQVRLRAGLPIYECNSRCRCGYDCPNRVVQKGIRYDLCIFRTDDGRGWGVRTLEKIRKNSFVMEYVGEIITSEEAERRGQIYDRQGATYLFDLDYVEDVYTVDAAYYGNISHFVNHSCDPNLQVYNVFIDNLDERLPRIAFFATRTIRAGEELTFDYNMQVDPVDMESTRMDSNFGLAGLPGSPKKRVRIECKCGTESCRKYLF
On to B8, for which the “Z score of condensed fraction” value is on record as -0.8281.

B9: BHLHE41 (protein, UniProt Q9C0J9 1-482, looked up)
Class E basic …: MDEGIPHLQERQLLEHRDFIGLDYSSLYMCKPKRSMKRDDTKDTYKLPHRLIEKKRRDRINECIAQLKDLLPEHLKLTTLGHLEKAVVLELTLKHLKALTALTEQQHQKIIALQNGERSLKSPIQSDLDAFHSGFQTCAKEVLQYLSRFESWTPREPRCVQLINHLHAVATQFLPTPQLLTQQVPLSKGTGAPSAAGSAAAPCLERAGQKLEPLAYCVPVIQRTQPSAELAAENDTDTDSGYGGEAEARPDREKGKGAGASRVTIKQEPPGEDSPAPKRMKLDSRGGGSGGGPGGGAAAAAAALLGPDPAAAAALLRPDAALLSSLVAFGGGGGAPFPQPAAAAAPFCLPFCFLSPSAAAAYVQPFLDKSGLEKYLYPAAAAAPFPLLYPGIPAPAAAAAAAAAAAAAAAAFPCLSSVLSPPPEKAGAAAATLLPHEVAPLGAPHPQHPHGRTHLPFAGPREPGNPESSAQEDPSQPGKEAP
B9: the “Z score of condensed fraction” value is listed as -0.9569.

B10: STAT5B (protein, UniProt P51692 1-787, looked up)
Signal transducer and …: MAVWIQAQQLQGEALHQMQALYGQHFPIEVRHYLSQWIESQAWDSVDLDNPQENIKATQLLEGLVQELQKKAEHQVGEDGFLLKIKLGHYATQLQNTYDRCPMELVRCIRHILYNEQRLVREANNGSSPAGSLADAMSQKHLQINQTFEELRLVTQDTENELKKLQQTQEYFIIQYQESLRIQAQFGPLAQLSPQERLSRETALQQKQVSLEAWLQREAQTLQQYRVELAEKHQKTLQLLRKQQTIILDDELIQWKRRQQLAGNGGPPEGSLDVLQSWCEKLAEIIWQNRQQIRRAEHLCQQLPIPGPVEEMLAEVNATITDIISALVTSTFIIEKQPPQVLKTQTKFAATVRLLVGGKLNVHMNPPQVKATIISEQQAKSLLKNENTRNDYSGEILNNCCVMEYHQATGTLSAHFRNMSLKRIKRSDRRGAESVTEEKFTILFESQFSVGGNELVFQVKTLSLPVVVIVHGSQDNNATATVLWDNAFAEPGRVPFAVPDKVLWPQLCEALNMKFKAEVQSNRGLTKENLVFLAQKLFNNSSSHLEDYSGLSVSWSQFNRENLPGRNYTFWQWFDGVMEVLKKHLKPHWNDGAILGFVNKQQAHDLLINKPDGTFLLRFSDSEIGGITIAWKFDSQERMFWNLMPFTTRDFSIRSLADRLGDLNYLIYVFPDRPKDEVYSKYYTPVPCESATAKAVDGYVKPQIKQVVPEFVNASADAGGGSATYMDQAPSPAVCPQAHYNMYPQNPDSVLDTDGDFDLEDTMDVARRVEELLGRPMDSQWIPHAQS
As to B10, the “Z score of condensed fraction” value stood at 2.437.
